In the RNAGym collection of RNA variant scans (doi:10.7554/elife.90254):

B1: LINE1-full (parent)
chain: UACGUAGGUGGUUUUCCCCUGAUAGUGCUAAGGGGGCCUGGAAGUUUGGACUGGGCAGAGCUCAACACAGCGUGGCAAAGUGGCUGUGGCUAGACUGCCUCUCUGGAUUCCUCGUCACUCAGCAGGGCAUCUCUGAGAGAAAUGCC

Variants of: B1
Assay: self-cleavage, relative activity (ratio to wild type); higher = more cleavage; in vitro, sequencing; the parent is a self-cleaving ribozyme
In the case of U9C U112C, the self-cleavage is reported as 1.45. U9C U115A showed a self-cleavage of 1.55. With U9C U115C the self-cleavage was 1.29. In the case of U9C U134A, the self-cleavage is reported as 1.19. Variant U9C U134G has a self-cleavage of 0.63. For U9C U143C, the self-cleavage was 1.31. U9G A22G gave a self-cleavage of 0.93. U9G A31C gave a self-cleavage of 1.72. U9G A42G gave a self-cleavage of 1.4. For U9G A43G, the self-cleavage was 0.85. U9G A50G gave a self-cleavage of 0.93. Work on U9G A64C yielded a self-cleavage of 0.18. U9G A64U showed a self-cleavage of 0.53. Variant U9G A67G has a self-cleavage of 0.37. U9G A77U showed a self-cleavage of 1.44. Work on U9G A79G yielded a self-cleavage of 0.63. In the case of U9G A94G, the self-cleavage is reported as 0.22. With U9G A124C the self-cleavage was 0. Work on U9G A140G yielded a self-cleavage of 0. Work on U9G A141G yielded a self-cleavage of 1.51. In the case of U9G A141U, the self-cleavage is reported as 0.52. U9G C56U showed a self-cleavage of 0.24. Work on U9G C68U yielded a self-cleavage of 0.21. U9G C116G showed a self-cleavage of 1.18. U9G G44A gave a self-cleavage of 1.53. Work on U9G G60A yielded a self-cleavage of 0.09. In the case of U9G G93C, the self-cleavage is reported as 0.11. Work on U9G U45A yielded a self-cleavage of 0.73. U9G U45C gave a self-cleavage of 0.25. Work on U9G U47A yielded a self-cleavage of 0.99. U9G U52G gave a self-cleavage of 1.05. Variant U9G U62C has a self-cleavage of 0.16. U9G U73C gave a self-cleavage of 1.24. With U9G U81C the self-cleavage was 0.83. Work on U9G U96A yielded a self-cleavage of 0. For U9G U102A, the self-cleavage was 1.44. U9G U108C showed a self-cleavage of 1.37. U9G U130A showed a self-cleavage of 0.78. In the case of U9G U130C, the self-cleavage is reported as 1.79. Work on U9G U132A yielded a self-cleavage of 0.59. For U9G U134C, the self-cleavage was 0.71. With G10A the self-cleavage was 1.11. In the case of G10A A22C, the self-cleavage is reported as 1.54. G10A A22G gave a self-cleavage of 1.09. G10A A22U showed a self-cleavage of 1.55. With G10A A43G the self-cleavage was 0.83. Variant G10A A50U has a self-cleavage of 1.32. For G10A A59G, the self-cleavage was 0.17. In the case of G10A A67U, the self-cleavage is reported as 0.07. G10A A77G gave a self-cleavage of 1.31. With G10A A78U the self-cleavage was 1.83. In the case of G10A A121G, the self-cleavage is reported as 1.37. Work on G10A A124U yielded a self-cleavage of 2.3. Variant G10A A136U has a self-cleavage of 0.95. G10A A138G gave a self-cleavage of 1.2. G10A C90U showed a self-cleavage of 0.06. G10A C95A showed a self-cleavage of 0.03. Work on G10A C99A yielded a self-cleavage of 0.42. For G10A C133U, the self-cleavage was 1.31. G10A G32A showed a self-cleavage of 0.73. G10A U12C gave a self-cleavage of 1.04. Variant G10A U14C has a self-cleavage of 1.45. Variant G10A U23C has a self-cleavage of 1.49. With G10A U26C the self-cleavage was 0.95. G10A U45C gave a self-cleavage of 1.4. Variant G10A U47C has a self-cleavage of 1.37. G10A U52C showed a self-cleavage of 0.62. G10A U62C showed a self-cleavage of 0.06. For G10A U73G, the self-cleavage was 1.14. With G10A U81A the self-cleavage was 2.3. For G10A U85C, the self-cleavage was 0.09. G10A U104C gave a self-cleavage of 0.37. In the case of G10A U130G, the self-cleavage is reported as 0.93. Variant G10C has a self-cleavage of 0.79. G10C C146U gave a self-cleavage of 1.91. In the case of G10C U13C, the self-cleavage is reported as 0.94. In the case of G10C U73C, the self-cleavage is reported as 1.64. Variant G10U has a self-cleavage of 1.26. G10U A59U showed a self-cleavage of 0.72. Variant G10U C145A has a self-cleavage of 1. G10U U91C showed a self-cleavage of 0.44. In the case of G10U U104C, the self-cleavage is reported as 2.42. Variant G10U U130C has a self-cleavage of 0.81. In the case of G11A A59G, the self-cleavage is reported as 0.08. With G11A A64U the self-cleavage was 0.3. In the case of G11A A65G, the self-cleavage is reported as 0.02. G11A A77U gave a self-cleavage of 1.58. With G11A A78G the self-cleavage was 1.38. For G11A A79G, the self-cleavage was 0.56. Variant G11A A121U has a self-cleavage of 0.95. For G11A A124U, the self-cleavage was 1.43. With G11A A141U the self-cleavage was 1.05. Work on G11A A142G yielded a self-cleavage of 1.23. G11A C28G gave a self-cleavage of 1.12. G11A C51U gave a self-cleavage of 1.38. G11A C63A showed a self-cleavage of 0.01. Work on G11A C95A yielded a self-cleavage of 0.06. In the case of G11A G49U, the self-cleavage is reported as 1.35. In the case of G11A G60A, the self-cleavage is reported as 0.01. For G11A U12C, the self-cleavage was 0.33. With G11A U12G the self-cleavage was 0.47. G11A U13C showed a self-cleavage of 0.51. In the case of G11A U20C, the self-cleavage is reported as 2.58. Work on G11A U20G yielded a self-cleavage of 1.05. G11A U29A showed a self-cleavage of 1.34. G11A U46C gave a self-cleavage of 0.94. Work on G11A U52G yielded a self-cleavage of 1.56. G11A U62G gave a self-cleavage of 0.03. For G11A U108C, the self-cleavage was 1.58. In the case of G11A U119A, the self-cleavage is reported as 0.93. In the case of G11C A57G, the self-cleavage is reported as 0.71. Work on G11C G48U yielded a self-cleavage of 1.25. G11C U20C showed a self-cleavage of 1.53. G11U A79U showed a self-cleavage of 1.75. For G11U A124U, the self-cleavage was 1.31. With G11U A136U the self-cleavage was 1.26. Variant G11U U20C has a self-cleavage of 0.34. G11U U130C showed a self-cleavage of 1. G11U U134G gave a self-cleavage of 1.07. In the case of U12A A30G, the self-cleavage is reported as 0.94. U12A A50C gave a self-cleavage of 0.57. U12A A50G showed a self-cleavage of 1.45. U12A A59U gave a self-cleavage of 0.56. With U12A A65C the self-cleavage was 0.14. Work on U12A A65G yielded a self-cleavage of 0.21. U12A A69G gave a self-cleavage of 0.42. U12A A77G showed a self-cleavage of 1.88. U12A A79G gave a self-cleavage of 1.13. Work on U12A A94G yielded a self-cleavage of 0.55. With U12A A121G the self-cleavage was 1.43. In the case of U12A A138G, the self-cleavage is reported as 1.37. Variant U12A A140G has a self-cleavage of 1.51. With U12A A140U the self-cleavage was 1.09. For U12A A141G, the self-cleavage was 1.19. Work on U12A A142G yielded a self-cleavage of 1.31. Work on U12A C98U yielded a self-cleavage of 0.41. U12A C113U gave a self-cleavage of 1.36. U12A C123U showed a self-cleavage of 1.38. Variant U12A G32A has a self-cleavage of 1.08. U12A G32C showed a self-cleavage of 0.8. U12A G35A gave a self-cleavage of 0.98. With U12A G35C the self-cleavage was 1.52. Variant U12A G49A has a self-cleavage of 1.05. U12A G127A showed a self-cleavage of 0.66. U12A G137U gave a self-cleavage of 1.05. For U12A U13C, the self-cleavage was 1.58. With U12A U15A the self-cleavage was 0.95. U12A U15C gave a self-cleavage of 0.92. Variant U12A U26C has a self-cleavage of 1.22. U12A U39C showed a self-cleavage of 1.17. U12A U45C gave a self-cleavage of 0.82. With U12A U46C the self-cleavage was 1.31. For U12A U47A, the self-cleavage was 0.67. In the case of U12A U47C, the self-cleavage is reported as 1.17. Work on U12A U52A yielded a self-cleavage of 1.28. With U12A U52C the self-cleavage was 1.06. With U12A U73A the self-cleavage was 1.47. For U12A U73C, the self-cleavage was 1.11. For U12A U73G, the self-cleavage was 0.73. In the case of U12A U81A, the self-cleavage is reported as 1.89. In the case of U12A U85A, the self-cleavage is reported as 0.15. U12A U87C gave a self-cleavage of 0.25. U12A U96G gave a self-cleavage of 0.38. With U12A U100A the self-cleavage was 0.87. Work on U12A U102C yielded a self-cleavage of 1.42. U12A U104A showed a self-cleavage of 1.19. Variant U12A U108C has a self-cleavage of 1.28.
